This note sets out measurements from article PMC3755343, “A family of fluoride-specific ion channels with dual-topology architecture” (eLife, 2013).

Where a chain is given by its changes, count along the chain named. Names and notes keep the numbering of the source.

Series [1] deals with Fluc-Ec2 (E. coli (virulence plasmid)) (UniProt Q6J5N4). In words: SEC-MALS; SEC with static light scattering, refractive index and UV detectors; Superdex-75 in 400 mM NaF, 10 mM MES pH 6.5, 5 mM DM (detergent micelles).
Series [2] deals with the molecule itself. Description: single-molecule TIRF photobleaching; Cy5-labeled protein reconstituted at very low density (0.15 µg/mg lipid) in liposomes adhered to glass; counting of bleaching steps.
Series [3] deals with the molecule itself. Description: cross-linking; ~0.1 mg/ml purified protein in 20 mM MOPS pH 7.5, 100 mM NaCl, 10 mM NaF, 5 mM DM with 0.125% glutaraldehyde for 5-120 min; 15% SDS-PAGE.

Consider “Fluc-Ec2 (from UniProt Q6J5N4 1-126) (natural protein)”, for which the stoichiometry N (as a rule, a count of units in the complex or per binding partner) in series [1] is 2.

B1: Fluc-Bpe R29C labeled with Cy5-maleimide (natural protein)
chain: MLTYAPLNFIAIGIGATLGAWLRWVLGLCLNGAGWPWGTLTANLVGGYLIGVMVALIASHPEWPAWIRLAAVTGFLGGLTTFSTFSAETVDMLERGVYATAAAYAGASLAGSLAMTGLGLATVRLLLR
modifications: Cy5-maleimide on the unique cysteine R29C (labeling efficiency 72%)
notes: Fluc homologue Bpe from Bordatella pertussis (so in the source), NCBI NP_879990.1, naturally cysteine-free, with a single cysteine substitution; source: E. coli BL21-DE3, purified, labeled with Cy5-maleimide, reconstituted into liposomes at 0.15 µg/mg lipid
Consider B1, for which the “stoichiometry N” value in series [2] came to 2.

B2: Fluc-Bpe R95K (natural protein)
chain: B1 chain with C29R, R95K
notes: Fluc homologue Bpe from Bordatella pertussis (so in the source), NCBI NP_879990.1, lysine-less, with a single lysine in loop 3
For B2, in series [3], the binding result is “binds”.

B3: Fluc-Bpe T3C labeled with Cy5-maleimide (natural protein)
chain: B1 chain with T3C, C29R
modifications: Cy5-maleimide on the unique cysteine T3C (labeling efficiency 62%)
notes: as for B1
For B3, the binding result in series [2] is reported as “binds”.

B4: Fluc-Bpe R29K (natural protein)
chain: B1 chain with C29K
notes: Fluc homologue Bpe from Bordatella pertussis (so in the source), NCBI NP_879990.1, lysine-less, with a single lysine in loop 1
In the case of B4, the binding result in series [3] is recorded as “binds”.
